Data from patent publication US7622265B2, “Methods and compositions for modulating prostasin” (Genentech, Inc., priority 2005, dated 2009).
Numbering of substitutions follows the chain as printed. Names may count otherwise. Values belong to the molecule of their own block, whether it stands above or below them. Where no end group is shown, it is not given here.

Columns and labels:
prostasin [1] = target: T1, prostasin (Homo sapiens, UniProt Q16651); assay: Enzyme inhibition assay (amidolytic activity of prostasin towards S2765); type: biochemical; set-up: made in house; host or cells: CHO cells (transient transfection, pRK5E); purified from conditioned medium on aprotinin-agarose; details: for inhibition of prostasin enzymatic activity (in words): substrate S2765
Description: The increase in absorbance at 405 nm was monitored on a kinetic microplate reader (Molecular Devices, Sunnyvale, Calif.). The linear rates of the increase in absorbance were expressed as percentage activities (100%×vi/v0). […] At least three independent experiments were performed for each inhibitor.
Target sequence in this assay (Q16651 45-322 limits assumed, other chains not shown): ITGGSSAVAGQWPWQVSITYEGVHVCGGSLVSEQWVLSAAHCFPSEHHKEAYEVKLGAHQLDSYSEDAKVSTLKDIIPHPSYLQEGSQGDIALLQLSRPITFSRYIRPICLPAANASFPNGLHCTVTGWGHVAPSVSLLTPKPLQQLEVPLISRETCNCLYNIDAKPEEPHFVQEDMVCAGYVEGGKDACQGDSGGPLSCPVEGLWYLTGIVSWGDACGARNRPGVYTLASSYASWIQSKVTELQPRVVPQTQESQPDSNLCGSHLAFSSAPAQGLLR

prostasin [2] = target: T1, prostasin; assay: Prostasin binding assay (complex formation, immunoblotting); set-up: made in house; host or cells: CHO cells (transient transfection, pRK5E); purified from conditioned medium on aprotinin-agarose; details: 20 nM sHAI-1B, 37° C., 0.5 or 2 h, immunoblot with anti-HAI-1B polyclonal antibody
Description: Prostasin binding assay—Purified prostasin and sHAI-1B were diluted in 20 mM Tris-Cl, pH 9.0 containing 0.01% Triton X-100 (TT buffer) to the final concentration as indicated. The mixture was incubated at 37° C. for 0.5 h or 2 h and the reaction was stopped by addition of SDS sample buffer with DTT. 30 μl of each sample was analyzed by immunoblotting.
Prostasin and sHAI-1B form 1:1 complexes—Soluble prostasin was purified from conditioned medium of CHO cells transiently transfected with full-length prostasin. […] Prostasin was incubated with sHAI-1B comprising the entire extracellular domain of HAI-1B (Kirchhofer, Peek et al. 2003) at different molar ratios (FIG.2A). Increasing concentrations of prostasin shifted the sHAI-1B band (55 kDa) to the higher molecular mass species of 85 kDa, indicating the formation of prostasin:sHAI-1B complexes. At a 10-fold molar excess of prostasin, almost all sHAI-1B was bound to prostasin. Immunoblotting with anti-prostasin antibody confirmed that the 85 kDa band comprised complexes of sHAI-1B and prostasin (data not shown).
Target sequence in this assay (Q16651 45-322 limits assumed, other chains not shown): as above

prostasin [3] = target: T1, prostasin; details: purified enzyme system; cited from earlier work
Target sequence in this assay (Q16651 33-343, species assumed): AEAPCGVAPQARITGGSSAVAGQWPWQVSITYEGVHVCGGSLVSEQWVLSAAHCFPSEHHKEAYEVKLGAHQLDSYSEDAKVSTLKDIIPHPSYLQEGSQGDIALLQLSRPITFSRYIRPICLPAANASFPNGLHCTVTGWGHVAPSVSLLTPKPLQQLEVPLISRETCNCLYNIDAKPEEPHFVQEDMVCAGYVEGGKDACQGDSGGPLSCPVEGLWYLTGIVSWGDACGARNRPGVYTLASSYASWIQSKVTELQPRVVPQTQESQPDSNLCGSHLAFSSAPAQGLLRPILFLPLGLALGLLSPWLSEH

B1: sHAI-1B K401A: KD2 mutant of sHAI-1B, P1 residue Lys401 (in KD2) changed to Ala (protein)
chain: GPPPAPPGLPAGADCLNSFTAGVPGFVLDTNASVSNGATFLESPTVRRGWDCVRACCTTQNCNLALVELQPDRGEDAIAACFLINCLYEQNFVCKFAPREGFINYLTREVYRSYRQLRTQGFGGSGIPKAWAGIDLKVQPQEPLVLKDVENTDWRLLRGDTDVRVERKDPNQVELWGLKEGTYLFQLTVTSSDHPEDTANVTVTVLSTKQTEDYCLASNKVGRCRGSFPRWYYDPTEQICKSFVYGGCLGNKNNYLREEECILACRGVQGGPLRGSSGAQATFPQGPSMERRHPVCSGTCQPTQFRCSNGCCIDSFLECDDTPNCPDASDEAACEKYTSGFDELQRIHFPSDKGHCVDLPDTGLCAESIPRWYYNPFSEHCARFTYGGCYGNKNNFEEEQQCLESCRGISKKDVFGLRREIPIPSTGSVE
inhibition of prostasin enzymatic activity (in words) (prostasin [1]; prostasin 3 nM): inhibitory potency comparable to the wildtype | complex formation with prostasin (prostasin [2]): still formed an 85 kDa complex with prostasin

B3: HAI-2: hepatocyte growth factor activator inhibitor-2, a bi-Kunitz type serine protease inhibitor (protein, UniProt O43291 28-252, looked up)
Kunitz-type protease …: ADRERSIHDFCLVSKVVGRCRASMPRWWYNVTDGSCQLFVYGGCDGNSNNYLTKEECLKKCATVTENATGDLATSRNAADSSVPSAPRRQDSEDHSSDMFNYEEYCTANAVTGPCRASFPRWYFDVERNSCNNFIYGGCRGNKNSYRSEEACMLRCFRQQENPPLPLGSKVVVLAGLFVMVLILFLGASMVYLIRVARRNQERALRTVWSSGDDKEQLVKNTYVL
inhibition of prostasin activity (in words) (prostasin [3]): potently inhibit prostasin activity

The remaining lines, values ahead:

inhibition of prostasin enzymatic activity (in words) (prostasin [1]; prostasin 3 nM): did not inhibit prostasin | IC50 (prostasin [1]; prostasin 3 nM, substrate S2765 0.05 mM, TT buffer, 20 min preincubation at room temperature, averages ± S.D. of at least three independent experiments, read-out: IC50 (nM), effects of inhibitors on the activity of prostasin): > 1000 nM
Molecule: APPI: Alzheimer's amyloid β protein precursor inhibitor, a Kunitz domain (VREVCSEQAETGPCRAMISRWYFDVTEGKCAPFFYGGCGGNRNNFDTEEYCMAVCGSA; ends and bridges not checked; cysteine pairing not given here) [reference compound]

fold less potent than wildtype sHAI-1B (prostasin [1]; IC50 compared with wildtype sHAI-1B): at least 18 fold | complex formation with prostasin (prostasin [2]): did not
B2: sHAI-1B R260A: KD1 mutant of sHAI-1B, P1 residue Arg260 (in KD1) changed to Ala (protein)
chain: B1 chain with R225A, A366K
